Our source for the Kd values is patent US20210115458.

The Kd is the free concentration of one partner at which half of the binding sites on the other are occupied at equilibrium, for simple one-to-one binding. A high value points to a looser complex.

The series has as its system T1, JUL1 (bead-immobilized for Kd assay) (Arabidopsis thaliana).
T1 sequence: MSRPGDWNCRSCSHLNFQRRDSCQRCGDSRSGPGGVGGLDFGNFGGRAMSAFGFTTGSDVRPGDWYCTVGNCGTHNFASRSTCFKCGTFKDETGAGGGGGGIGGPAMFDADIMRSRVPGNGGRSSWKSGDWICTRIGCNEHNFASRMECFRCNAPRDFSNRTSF
To be noted: FAM-RNA bead fluorescence assay.

Where two headings read alike, the source gives them in different places.

In the case of SMXL5 5' UTR G-quadruplex-forming motif, the dissociation constant (Kd) by setting is: (with potassium (folded G4)) 230 nM; (without potassium) 130 nM.
